{
  "source": "patent US6699869",
  "proteins": {"B1": {"name": "human Factor VIIa (FVIIa) and human tissue factor (TF) complex (protein)", "chain 1": "ANAFLEELRPGSLERECKEEQCSFEEAREIFKDAERTKLFWISYSDGDQCASSPCQNGGSCKDQLQSYICFCLPAFEGRNCETHKDDQLICVNENGGCEQYCSDHTGTKRSCRCHEGYSLLADGVSCTPTVEYPCGKIPILEKRNASKPQGRIVGGKVCPKGECPWQVLLLVNGAQLCGGTLINTIWVVSAAHCFDKIKNWRNLIAVLGEHDLSEHDGDEQSRRVAQVIIPSTYVPGTTNHDIALLRLHQPVVLTDHVVPLCLPERTFSERTLAFVRFSLVSGWGQLLDRGATALELMVLNVPRLMTQDCLQQSRKVGDSPNITEYMFCAGYSDGSKDSCKGDSGGPHATHYRGTWYLTGIVSWGQGCATVGHFGVYTRVSQYIEWLQKLMRSEPRPGVLLRAPFP", "chain 2": "SGTTNTVAAYNLTWKSTNFKTILEWEPKPVNQVYTVQISTKSGDWKSKCFYTTDTECDLTDEIVKDVKQTYLARVFSYPAGNVESTGSAGEPLYENSPEFTPYLETNLGQPTIQSFEQVGTKVNVTVEDERTLVRRNNTFLSLRDVFGKDLIYTLYYWKSSSSGKKTAKTNTNEFLIDVDKGENYCFSVQAVIPSRTVNRKSTDSPVECMGQEKGEFRE"}},
  "biological_target": "T1, (D)FPR-PNA",
  "T1 chain": "FPR",
  "data": [
    {"protein": "B1", "values": [
      {"measurement": "Kcat/KM of substrate hydrolysis", "value": "Factor VII: Kcat/KM=1.27×10^4 M^-1 S^-1"}
    ]}
  ]
}
